Target: human GPC3 full-length protein on cells (CHO-K1-hGPC3; cells expressing GPC3) (human, UniProt P51654 25-580)
Experiment: cell-based or functional assay

human GPC3 full-length protein on cells (CHO-K1-hGPC3; cells expressing GPC3), sequence (P51654 25-580, form in doubt): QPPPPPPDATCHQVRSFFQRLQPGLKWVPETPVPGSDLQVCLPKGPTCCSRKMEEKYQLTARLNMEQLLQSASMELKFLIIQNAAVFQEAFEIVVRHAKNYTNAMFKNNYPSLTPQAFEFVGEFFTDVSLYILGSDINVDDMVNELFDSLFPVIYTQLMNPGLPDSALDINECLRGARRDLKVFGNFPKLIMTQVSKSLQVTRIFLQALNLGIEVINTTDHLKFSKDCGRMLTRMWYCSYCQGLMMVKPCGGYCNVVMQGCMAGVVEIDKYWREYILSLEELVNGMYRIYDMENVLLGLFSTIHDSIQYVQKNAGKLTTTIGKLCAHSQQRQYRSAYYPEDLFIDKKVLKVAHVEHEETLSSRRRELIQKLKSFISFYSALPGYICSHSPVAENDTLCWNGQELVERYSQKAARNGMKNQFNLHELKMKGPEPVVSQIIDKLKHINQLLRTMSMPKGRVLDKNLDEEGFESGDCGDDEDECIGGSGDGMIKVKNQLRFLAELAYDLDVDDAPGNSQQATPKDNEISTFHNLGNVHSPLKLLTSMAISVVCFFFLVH

B1: humanized antibody Ab9 (antibody, human IgG1, kappa, V domains shown)
VH: QVQLVQSGAEVKKPGASVKVSCKASGYTFTDYEMHWVRQAPGQGLEWMGAIDPKTGRTAYNQKFKDRVTLTADKSTSTAYMELSSLTSEDTAVYYCTRYYSYAYWGQGTLVTVSS
VL: DVVMTQSPLSLSVTPGEPASISCRSSQSLVHSNRNTYLQWYLQKPGQPPQLLIYKVSNRFSGVPDRFSGSGSGTDFTLKISRVEAEDVGVYYCSQSIHVPYTFGQGTKLEIKR
For B1, the “CDC, IC50” value was 0.308 nM.

Reference: patent publication WO2021110095A1 (dated 2021)
